Laboratory results reported in paper PMC3334620.

How the values were obtained:
Details in all cases: 200 nM
[1] = target: T1, Stb5 (Saccharomyces cerevisiae) (UniProt P38699)
T1 sequence: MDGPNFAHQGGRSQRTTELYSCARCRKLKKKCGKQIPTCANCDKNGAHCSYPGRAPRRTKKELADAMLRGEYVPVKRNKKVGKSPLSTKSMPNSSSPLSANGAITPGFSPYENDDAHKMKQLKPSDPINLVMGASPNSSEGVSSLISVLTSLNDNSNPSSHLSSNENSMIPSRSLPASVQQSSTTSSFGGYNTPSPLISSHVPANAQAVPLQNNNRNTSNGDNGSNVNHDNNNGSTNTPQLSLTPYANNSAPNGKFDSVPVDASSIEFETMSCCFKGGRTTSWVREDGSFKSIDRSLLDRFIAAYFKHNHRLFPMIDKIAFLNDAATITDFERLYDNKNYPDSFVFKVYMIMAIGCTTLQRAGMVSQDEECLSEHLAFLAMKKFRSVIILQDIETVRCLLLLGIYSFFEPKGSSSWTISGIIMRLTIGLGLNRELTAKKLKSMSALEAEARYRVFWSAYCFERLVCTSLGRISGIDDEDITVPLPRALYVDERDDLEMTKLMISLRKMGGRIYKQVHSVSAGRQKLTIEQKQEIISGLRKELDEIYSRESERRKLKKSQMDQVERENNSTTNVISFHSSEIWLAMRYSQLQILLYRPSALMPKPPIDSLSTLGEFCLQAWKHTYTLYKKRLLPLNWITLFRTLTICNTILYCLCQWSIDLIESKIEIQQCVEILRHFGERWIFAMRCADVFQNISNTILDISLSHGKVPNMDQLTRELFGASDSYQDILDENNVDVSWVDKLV

[2] = target: T2, Sut1 (Saccharomyces cerevisiae) (UniProt P53032)
T2 sequence: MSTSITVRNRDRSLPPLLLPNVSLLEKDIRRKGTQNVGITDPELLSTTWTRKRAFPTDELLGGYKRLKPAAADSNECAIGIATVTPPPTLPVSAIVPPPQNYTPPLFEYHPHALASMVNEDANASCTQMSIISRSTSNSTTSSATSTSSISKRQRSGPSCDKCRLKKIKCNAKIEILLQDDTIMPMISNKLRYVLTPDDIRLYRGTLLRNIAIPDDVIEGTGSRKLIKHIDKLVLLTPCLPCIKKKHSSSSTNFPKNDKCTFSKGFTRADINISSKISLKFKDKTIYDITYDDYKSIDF

[3] = target: T3, Stp1 (Saccharomyces cerevisiae) (UniProt Q00947)
T3 sequence: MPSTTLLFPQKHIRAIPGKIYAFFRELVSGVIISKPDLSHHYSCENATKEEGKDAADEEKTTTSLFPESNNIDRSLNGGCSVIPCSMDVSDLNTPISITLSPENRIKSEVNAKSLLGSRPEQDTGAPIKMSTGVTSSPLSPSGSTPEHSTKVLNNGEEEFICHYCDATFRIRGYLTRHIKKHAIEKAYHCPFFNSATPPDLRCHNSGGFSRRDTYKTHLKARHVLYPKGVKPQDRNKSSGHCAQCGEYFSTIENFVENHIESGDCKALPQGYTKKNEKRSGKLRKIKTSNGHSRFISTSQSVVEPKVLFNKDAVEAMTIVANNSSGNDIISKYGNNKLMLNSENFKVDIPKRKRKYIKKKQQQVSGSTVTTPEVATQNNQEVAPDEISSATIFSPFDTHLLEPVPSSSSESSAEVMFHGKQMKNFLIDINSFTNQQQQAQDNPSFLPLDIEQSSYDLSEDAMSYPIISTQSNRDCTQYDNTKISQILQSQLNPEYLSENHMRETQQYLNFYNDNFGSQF

[4] = target: T4, Upc2 (Saccharomyces cerevisiae) (UniProt Q12151)
T4 sequence: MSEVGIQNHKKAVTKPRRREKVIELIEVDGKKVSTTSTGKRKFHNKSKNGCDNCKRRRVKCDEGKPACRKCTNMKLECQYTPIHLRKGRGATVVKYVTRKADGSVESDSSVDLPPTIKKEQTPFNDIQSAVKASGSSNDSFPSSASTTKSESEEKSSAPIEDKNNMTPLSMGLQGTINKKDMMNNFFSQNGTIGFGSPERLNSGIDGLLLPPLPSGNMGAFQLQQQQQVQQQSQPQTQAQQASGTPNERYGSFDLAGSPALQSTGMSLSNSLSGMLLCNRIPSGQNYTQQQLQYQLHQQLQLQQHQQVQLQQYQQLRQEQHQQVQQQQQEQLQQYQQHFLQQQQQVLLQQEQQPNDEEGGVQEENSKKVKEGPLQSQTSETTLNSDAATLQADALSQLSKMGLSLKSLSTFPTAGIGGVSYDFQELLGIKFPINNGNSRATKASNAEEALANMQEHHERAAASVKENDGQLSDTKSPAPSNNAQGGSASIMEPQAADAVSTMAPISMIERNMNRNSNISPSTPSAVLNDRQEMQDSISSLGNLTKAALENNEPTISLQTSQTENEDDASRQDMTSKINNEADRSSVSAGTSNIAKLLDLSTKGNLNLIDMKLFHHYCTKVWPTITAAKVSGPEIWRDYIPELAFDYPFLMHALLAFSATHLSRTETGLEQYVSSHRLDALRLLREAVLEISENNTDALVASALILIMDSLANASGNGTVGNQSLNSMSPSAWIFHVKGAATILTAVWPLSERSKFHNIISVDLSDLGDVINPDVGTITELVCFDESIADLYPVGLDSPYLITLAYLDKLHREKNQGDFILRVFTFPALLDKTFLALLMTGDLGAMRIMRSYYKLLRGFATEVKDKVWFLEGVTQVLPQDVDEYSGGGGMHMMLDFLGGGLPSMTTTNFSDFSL

[5] = target: T5, Ecm22 (Saccharomyces cerevisiae) (UniProt Q05958)
T5 sequence: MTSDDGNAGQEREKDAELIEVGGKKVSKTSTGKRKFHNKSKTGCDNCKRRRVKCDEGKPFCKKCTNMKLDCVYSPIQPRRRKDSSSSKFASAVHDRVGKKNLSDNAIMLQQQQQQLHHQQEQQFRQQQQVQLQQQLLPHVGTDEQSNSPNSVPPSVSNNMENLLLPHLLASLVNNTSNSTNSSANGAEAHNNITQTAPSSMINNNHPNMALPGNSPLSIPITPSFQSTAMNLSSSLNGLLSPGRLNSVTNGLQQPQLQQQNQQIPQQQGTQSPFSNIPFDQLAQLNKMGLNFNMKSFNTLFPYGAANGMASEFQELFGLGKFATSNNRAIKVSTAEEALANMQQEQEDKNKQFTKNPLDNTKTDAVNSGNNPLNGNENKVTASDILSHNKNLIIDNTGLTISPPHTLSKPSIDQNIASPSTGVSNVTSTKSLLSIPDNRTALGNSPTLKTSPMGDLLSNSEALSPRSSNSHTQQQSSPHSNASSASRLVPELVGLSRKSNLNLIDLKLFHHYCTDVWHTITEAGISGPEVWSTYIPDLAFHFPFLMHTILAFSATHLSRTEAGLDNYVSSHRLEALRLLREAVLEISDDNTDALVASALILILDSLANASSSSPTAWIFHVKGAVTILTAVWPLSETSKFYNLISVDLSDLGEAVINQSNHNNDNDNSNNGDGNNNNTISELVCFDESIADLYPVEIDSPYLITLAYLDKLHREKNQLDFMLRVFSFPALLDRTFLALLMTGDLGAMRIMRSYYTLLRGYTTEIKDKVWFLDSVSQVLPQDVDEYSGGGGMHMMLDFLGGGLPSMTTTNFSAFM

Sequence | binding signal (PBM E-score (-0.5 to 0.5)) [1] | binding signal (PBM E-score (-0.5 to 0.5)) [3] | other results
AAACACCG (double strand) [8-mer AAACACCG] | 0.491 | – | –
AAACTCCG (double strand) [8-mer AAACTCCG] | – | – | binding signal (PBM E-score (-0.5 to 0.5)) [2]: 0.498
AAAGTCCG (double strand) [8-mer AAAGTCCG] | – | – | binding signal (PBM E-score (-0.5 to 0.5)) [2]: 0.496
AACACCGC (double strand) [8-mer AACACCGC] | 0.48 | – | –
AACCCCGC (double strand) [8-mer AACCCCGC] | 0.484 | – | –
AACTCCGA (double strand) [8-mer AACTCCGA] | – | – | binding signal (PBM E-score (-0.5 to 0.5)) [2]: 0.499
AACTCCGG (double strand) [8-mer AACTCCGG] | – | – | binding signal (PBM E-score (-0.5 to 0.5)) [2]: 0.499
AACTCCGT (double strand) [8-mer AACTCCGT] | – | – | binding signal (PBM E-score (-0.5 to 0.5)) [2]: 0.496
AAGTCCGA (double strand) [8-mer AAGTCCGA] | – | – | binding signal (PBM E-score (-0.5 to 0.5)) [2]: 0.498
AAGTCCGG (double strand) [8-mer AAGTCCGG] | – | – | binding signal (PBM E-score (-0.5 to 0.5)) [2]: 0.497
ACACGGCA (double strand) [8-mer ACACGGCA] | – | 0.49 | –
ACGGCACT (double strand) [8-mer ACGGCACT] | – | 0.489 | –
ACGGCGCC (double strand) [8-mer ACGGCGCC] | – | 0.49 | –
ACGGCGCG (double strand) [8-mer ACGGCGCG] | – | 0.492 | –
ACTCCGAA (double strand) [8-mer ACTCCGAA] | – | – | binding signal (PBM E-score (-0.5 to 0.5)) [2]: 0.495
ACTCCGAG (double strand) [8-mer ACTCCGAG] | – | – | binding signal (PBM E-score (-0.5 to 0.5)) [2]: 0.494
ATAAACGA (double strand) [8-mer ATAAACGA] | – | – | binding signal (PBM E-score (-0.5 to 0.5)) [4]: 0.494
ATACGGCG (double strand) [8-mer ATACGGCG] | – | 0.49 | –
ATCGTATA (double strand) [8-mer ATCGTATA] | – | – | binding signal (PBM E-score (-0.5 to 0.5)) [4]: 0.493
ATCGTTTA (double strand) [8-mer ATCGTTTA] | – | – | binding signal (PBM E-score (-0.5 to 0.5)) [4]: 0.495
CAACTCCG (double strand) [8-mer CAACTCCG] | – | – | binding signal (PBM E-score (-0.5 to 0.5)) [2]: 0.497
CAAGTCCG (double strand) [8-mer CAAGTCCG] | – | – | binding signal (PBM E-score (-0.5 to 0.5)) [2]: 0.492
CACGGCAC (double strand) [8-mer CACGGCAC] | – | 0.491 | –
CACGGCGC (double strand) [8-mer CACGGCGC] | – | 0.493 | –
CGCACGGC (double strand) [8-mer CGCACGGC] | – | 0.488 | –

Sequence | binding signal (PBM E-score (-0.5 to 0.5)) [1] | binding signal (PBM E-score (-0.5 to 0.5)) [3] | other results
CGCCGTGC (double strand) [8-mer CGCCGTGC] | – | 0.493 | –
CGCGGCAC (double strand) [8-mer CGCGGCAC] | – | 0.49 | –
CGCGGCGC (double strand) [8-mer CGCGGCGC] | – | 0.492 | –
CGGACTTA (double strand) [8-mer CGGACTTA] | 0.483 | – | –
CGGACTTC (double strand) [8-mer CGGACTTC] | – | – | binding signal (PBM E-score (-0.5 to 0.5)) [2]: 0.496
CGGAGATA (double strand) [8-mer CGGAGATA] | 0.48 | – | –
CGGAGTTA (double strand) [8-mer CGGAGTTA] | 0.487 | – | binding signal (PBM E-score (-0.5 to 0.5)) [2]: 0.495
CGGAGTTC (double strand) [8-mer CGGAGTTC] | – | – | binding signal (PBM E-score (-0.5 to 0.5)) [2]: 0.498
CGGCACTA (double strand) [8-mer CGGCACTA] | 0.481 | – | –
CGGCATTA (double strand) [8-mer CGGCATTA] | 0.489 | – | –
CGGCCTTA (double strand) [8-mer CGGCCTTA] | 0.481 | – | –
CGGCGTTA (double strand) [8-mer CGGCGTTA] | 0.49 | – | –
CGGGGTTA (double strand) [8-mer CGGGGTTA] | 0.495 | – | –
CGGTCTTA (double strand) [8-mer CGGTCTTA] | 0.48 | – | –
CGGTGATA (double strand) [8-mer CGGTGATA] | 0.488 | – | –
CGGTGCTA (double strand) [8-mer CGGTGCTA] | 0.488 | – | –
CGGTGTTA (double strand) [8-mer CGGTGTTA] | 0.496 | – | –
CGTATACG (double strand) [8-mer CGTATACG] | – | – | binding signal (PBM E-score (-0.5 to 0.5)) [4]: 0.494
CTAAACGA (double strand) [8-mer CTAAACGA] | – | – | binding signal (PBM E-score (-0.5 to 0.5)) [4]: 0.496; binding signal (PBM E-score (-0.5 to 0.5)) [5]: 0.493
GCACGGCA (double strand) [8-mer GCACGGCA] | – | 0.49 | –
GCGCCGCA (double strand) [8-mer GCGCCGCA] | – | 0.491 | –
GCGCCGTA (double strand) [8-mer GCGCCGTA] | – | 0.495 | –
GTCGTTTA (double strand) [8-mer GTCGTTTA] | – | – | binding signal (PBM E-score (-0.5 to 0.5)) [4]: 0.494
GTGCCGTA (double strand) [8-mer GTGCCGTA] | – | 0.493 | –
TAAACGAA (double strand) [8-mer TAAACGAA] | – | – | binding signal (PBM E-score (-0.5 to 0.5)) [4]: 0.494
